This note sets out measurements from article PMC2928751.

Experiment [1] has as its target Gli3 D-site peptide (human). Nature of the experiment: peptide or protein array; 17-mer peptides linked by the C-terminus to a nitrocellulose membrane, in duplicate, probed with [35S]-methionine labelled JNK1; PhosphorImager signal normalised to MKK7-D2 = 100%.
The target in experiment [2] is MLL4 D-site peptide (human). The experiment is described as above.
The target of experiment [3] is Neil1 D-site peptide (human). The experiment is described as above.
The target of experiment [4] is 35S-radiolabeled JNK1, P45983-2. Put plainly: peptide array probed with 35S-labeled JNK1, Phosphorimager quantification. As to conditions: read off a plot.

For “35S-radiolabeled JNK1 (from UniProt P45983-2 1-384) (enzyme)”, the figures for the binding normalised to the MKK7-D2 positive control in experiment [1], in experiment [2] and in experiment [3] were 193 % of MKK7-D2, 161 % of MKK7-D2 and 198 % of MKK7-D2, respectively. Turning to “MKK4 D-site peptide (positive control) MKK4 Mut (alanine substitutions at the critical basic and hydrophobic residues; not printed)”, the response (% of MKK7-D2 binding) in experiment [4] (parent: est. 520) stood at 28. Consider “MKK7-D2 peptide (positive control) MKK7 Mut (alanine substitutions at the critical basic and hydrophobic residues; not printed)”, for which the percent of parent (% of MKK7-D2 binding) in experiment [4] (parent: est. 100) was determined as 12.
